Experiments:
[1] = target: T1, His-OpaR (Vibrio parahaemolyticus RIMD 2210633) (UniProt Q79YV4); experiment: EMSA; settings: 1 mM MgCl2, 0.5 mM EDTA, 0.5 mM DTT, 50 mM NaCl, 10 mM Tris-HCl pH 7.5, 0.05 mg/ml poly(dI-dC), room temperature, 30 min; footprinting same buffer, then …
T1 sequence: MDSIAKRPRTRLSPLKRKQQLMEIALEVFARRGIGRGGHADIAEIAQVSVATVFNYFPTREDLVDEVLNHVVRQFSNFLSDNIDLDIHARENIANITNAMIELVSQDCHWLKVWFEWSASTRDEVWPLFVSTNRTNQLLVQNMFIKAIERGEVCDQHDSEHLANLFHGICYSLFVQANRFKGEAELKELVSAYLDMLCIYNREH

[2] = target: T1, His-OpaR (Vibrio parahaemolyticus RIMD 2210633); experiment: DNase I footprinting; settings: 1 mM MgCl2, 0.5 mM EDTA, 0.5 mM DTT, 50 mM NaCl, 10 mM Tris-HCl pH 7.5, 0.05 mg/ml poly(dI-dC), room temperature, 30 min; footprinting same buffer, then …

Sequence: AACCGTGAAATCCATTTACTGAGGTATTTTTCCTCATTAATTAGCAGTATAGGGTAAAAATATGAAAGCTAATGGATAATCATAAAGTAGTAGTTGGTTTTTTGCTGAGAAAGTGATTAGTAGCAATGTAACAAGTGGCATATTTGCATGCTATTGCATTTTGCAAATGCAATTTGCGAAAGTGCTGGTTAATAATGCGTCG (double strand) [qrr4 promoter fragment]
- binding [1]: binds
- binding [2]: binds

Sequence: AACTTCCAACCACATAATTGCGCAGCAAATAACCAGACATTTACACTACAAAAAACCCATAAAATACCAACAAATTAGAATTATTAACTACAAAATAACTCTATTGAGTATTATGTTAGTTTTTCAGGGTAATTTTGTCCTAGTATTCCACTTCATGCTTATTATTTATATACTACTTGCCTGCTGAGAGCTCATAAATCCAATCATACCTGCTCCAGCC (double strand) [aphA promoter fragment]
- binding [1]: binds
- binding [2]: binds

Sequence: AGTGGGTTGAAAGTCACATCCTTTTGCGGAAAATTCTTGGGAGCGCTGCCAAATTTTCGAAAGTTTACAGCAAAACTTATCAATAATAATGACATTACTGTCTATAAATTATCCATCAGATGTTGACCTTGTGCATATGCACCATTACACTCATCACTGCTTAAAGCAATTATTAAAATAATCAATTAGGGGGTTACCCCCAACAACAACTCAAATGGCAAGGAAAATGGATATGGACTCAATTGCAAAGAGACCTAGAACTAGGC (double strand) [opaR promoter footprinting fragment]
- binding [2]: binds

Sequence: AGTGGTTGCTTATGAATCAATCCCAGGAAAAGGCGAGAACAGCGAACCTTCAACTCGTTAACATTTTATTTTCATTTACATTTTGACTAACTCAATTGTTAATAAATTACCTAAATTGCATTTTGAAATTGCAGAATGCAATTAAGTTTTGTTTTTTGCAAAAATTTATATAGGCAATATCAGTTTATATGAGATCTTGTGCCCAAAAATAAAGCTTTGAAAATTGGCATGATTAATGCATAATACTTCTCGACC (double strand) [qrr2 promoter fragment]
- binding [1]: binds
- binding [2]: binds

Sequence: GGATAAGTTCAAATTGGATCCAGCCTTAGCAGGCTCGGTTATTCTAACGACAGTGACAGATGTGGTTGGTTTTTTCGCCTTTTTGGGAACGGCGAGTTTAGTCATGCTCTAAAAAGTCCACTGTTTATTAATCAATCATTAGCATAATAGAGACAAATTGCATAACGCACTTGCAAATTGCAAAAACATTCAAAGTTTAAGCAACGTATGTCACAGAAACCAC (double strand) [qrr3 promoter fragment]
- binding [1]: binds
- binding [2]: binds

Reference: paper PMC3323551
